Assay results published in patent publication US20240261333A1 (published 2024).

How the values were obtained:
Experiment in all cases: co-IP with anti-FLAG, mass spectrometry; N-FLAG B3GNT2
YBX3 = molecular target: T1, YBX3 (UniProt P16989 2-372, limits assumed)
T1 construct: Endogenous protein found in the co-IP by mass spectrometry; also called XP_016875611.1 (+1)
Description: (§1) Cells were plated in 10-cm cell culture dishes and grown to 60-80% confluency. For each condition, two biological replicates were harvested for co-IP. Cells were washed with PBS and 4 mL of lysis buffer (20 mM HEPES, 1% Triton X-100, 150 mM NaCl, 1 mM EDTA, and 10% glycerol) containing protease inhibitor cocktail was added. Cells were scraped and lysate was incubated at 4° C. under rotary agitation for 1 h. Lysate was centrifuged at 14,000×g for 10 min at 4° C. Supernatant was transferred to a new tube and an aliquot was taken as the input. […] For Western blots, 10 μg/mL Chicken Anti-FLAG (Aves labs ET-DY100) and IgY control (R&D Systems AB-101-C) antibodies were biotinylated (Thermo Fisher Scientific 90407) and added to the respective conditions. Lysates with antibodies were incubated at 4° C. under rotary agitation overnight. For each mL of lysate, 50 μL of Pierce Protein A/G Magnetic Beads (Mass spectrometry; Thermo Fisher Scientific 88803) or Pierce Streptavidin Magnetic Beads (Western blot; Thermo Fisher Scientific 88817) was washed twice with lysis buffer. Lysates with antibodies were added to the beads and incubated at 4° C. under rotary agitation for 4 h. Beads were washed with lysis buffer 3 times and resuspended in lysis buffer for storage.
(§2) Magnetic beads were resuspended in 100 mM Tris pH 7.8, reduced, alkylated and digested with trypsin at 37° ° C. overnight. This solution was subjected to solid phase extraction to concentrate the peptides and remove unwanted reagents followed by injection onto a Shimadzu HPLC with fraction collector. Eight fractions were collected and after concentration were injected on a Waters NanoAcquity HPLC equipped with a self-packed Aeris 3 μm C18 analytical column 0.075 mm by 20 cm, (Phenomenex). Peptides were eluted using standard reverse-phase gradients. The effluent from the column was analyzed using a Thermo Orbitrap Elite mass spectrometer (nanospray configuration) operated in a data dependent manner for 54 minutes. The resulting fragmentation spectra were correlated against the known database using Proteome Discover 1.4 (Thermo Fisher Scientific).

HNRNPA1 = molecular target: T2, HNRNPA1 (UniProt P09651 2-372)
T2 construct: Endogenous protein found in the co-IP by mass spectrometry; also called NP_112420.1
T2 sequence (P09651 2-372 limits assumed): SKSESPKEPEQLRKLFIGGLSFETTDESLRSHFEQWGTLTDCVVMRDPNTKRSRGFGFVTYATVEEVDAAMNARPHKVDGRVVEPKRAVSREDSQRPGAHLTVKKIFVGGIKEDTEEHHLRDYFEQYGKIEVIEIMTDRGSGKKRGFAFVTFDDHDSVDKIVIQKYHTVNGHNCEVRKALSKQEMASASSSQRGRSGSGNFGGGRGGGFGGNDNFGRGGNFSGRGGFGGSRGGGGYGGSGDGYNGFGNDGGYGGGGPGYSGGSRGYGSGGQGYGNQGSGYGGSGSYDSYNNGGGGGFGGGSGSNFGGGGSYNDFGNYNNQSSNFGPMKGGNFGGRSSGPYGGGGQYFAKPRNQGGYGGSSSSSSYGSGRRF
Description: as §1, §2

RPL36A = RPL36A (UniProt P83881 1-106)
Description: as §1, §2

RPL21 = RPL21 (UniProt P46778 2-160)
Description: as §1, §2

TPI1 = molecular target: T3, TPI1 (UniProt P60174 2-249)
T3 construct: Endogenous protein found in the co-IP by mass spectrometry; also called NP_000356.1 (+2)
T3 sequence (P60174 2-249 limits assumed): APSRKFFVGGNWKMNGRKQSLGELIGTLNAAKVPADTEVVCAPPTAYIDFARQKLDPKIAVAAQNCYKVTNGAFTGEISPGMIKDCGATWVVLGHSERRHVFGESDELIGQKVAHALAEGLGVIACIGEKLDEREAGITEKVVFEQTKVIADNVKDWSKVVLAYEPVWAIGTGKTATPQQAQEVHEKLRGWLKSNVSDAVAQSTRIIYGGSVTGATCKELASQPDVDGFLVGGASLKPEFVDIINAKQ
Description: as §1, §2

ATXN2L = molecular target: T4, ATXN2L (UniProt Q8WWM7 1-1075)
T4 construct: Endogenous protein found in the co-IP by mass spectrometry; also called NP_009176.2
T4 sequence (looked up): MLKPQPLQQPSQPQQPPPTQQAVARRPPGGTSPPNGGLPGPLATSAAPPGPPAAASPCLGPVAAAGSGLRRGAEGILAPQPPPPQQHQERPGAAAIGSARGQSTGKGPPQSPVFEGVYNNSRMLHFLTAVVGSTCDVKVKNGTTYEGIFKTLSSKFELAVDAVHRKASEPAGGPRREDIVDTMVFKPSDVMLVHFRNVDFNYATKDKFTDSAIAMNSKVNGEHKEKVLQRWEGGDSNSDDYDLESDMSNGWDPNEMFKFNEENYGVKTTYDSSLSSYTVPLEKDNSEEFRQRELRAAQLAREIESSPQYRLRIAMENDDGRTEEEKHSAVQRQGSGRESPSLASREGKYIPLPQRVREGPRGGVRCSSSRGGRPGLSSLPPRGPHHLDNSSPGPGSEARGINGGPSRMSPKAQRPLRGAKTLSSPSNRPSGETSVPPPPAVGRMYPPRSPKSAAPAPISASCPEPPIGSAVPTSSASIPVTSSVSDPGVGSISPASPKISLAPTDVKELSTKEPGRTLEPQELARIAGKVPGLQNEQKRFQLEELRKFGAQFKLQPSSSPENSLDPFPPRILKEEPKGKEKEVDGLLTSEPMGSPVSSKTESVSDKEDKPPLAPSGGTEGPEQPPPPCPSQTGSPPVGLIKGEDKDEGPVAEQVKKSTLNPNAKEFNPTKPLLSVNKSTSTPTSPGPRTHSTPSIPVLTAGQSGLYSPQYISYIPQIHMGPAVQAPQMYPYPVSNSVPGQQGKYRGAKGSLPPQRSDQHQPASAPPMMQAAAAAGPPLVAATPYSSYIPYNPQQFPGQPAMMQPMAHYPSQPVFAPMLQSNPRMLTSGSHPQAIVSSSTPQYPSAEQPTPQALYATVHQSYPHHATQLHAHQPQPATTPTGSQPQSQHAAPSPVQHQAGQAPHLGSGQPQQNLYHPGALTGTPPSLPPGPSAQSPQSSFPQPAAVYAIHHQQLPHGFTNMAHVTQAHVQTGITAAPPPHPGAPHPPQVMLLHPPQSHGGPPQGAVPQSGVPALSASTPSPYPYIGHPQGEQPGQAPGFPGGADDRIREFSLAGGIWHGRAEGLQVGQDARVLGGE
Description: as §1, §2

RCC2 = molecular target: T5, RCC2 (UniProt Q9P258 1-522)
T5 construct: Endogenous protein found in the co-IP by mass spectrometry; also called NP_061185.1
T5 sequence (Q9P258 whole entry): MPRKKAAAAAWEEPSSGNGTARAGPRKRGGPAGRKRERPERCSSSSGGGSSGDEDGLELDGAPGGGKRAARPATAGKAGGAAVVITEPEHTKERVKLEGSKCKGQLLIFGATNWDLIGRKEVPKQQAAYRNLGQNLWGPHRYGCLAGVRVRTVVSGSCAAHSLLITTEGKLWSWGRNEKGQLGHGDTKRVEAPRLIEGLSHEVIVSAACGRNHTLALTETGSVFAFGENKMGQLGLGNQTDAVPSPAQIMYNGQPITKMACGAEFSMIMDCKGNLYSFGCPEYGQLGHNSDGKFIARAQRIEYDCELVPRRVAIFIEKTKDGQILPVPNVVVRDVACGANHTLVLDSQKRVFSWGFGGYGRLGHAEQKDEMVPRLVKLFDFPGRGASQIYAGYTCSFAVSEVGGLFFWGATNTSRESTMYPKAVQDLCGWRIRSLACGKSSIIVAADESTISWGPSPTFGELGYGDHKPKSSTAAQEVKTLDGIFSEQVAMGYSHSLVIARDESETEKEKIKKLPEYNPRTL
Description: as §1, §2

LTF = molecular target: T6, LTF (UniProt P02788 20-710, limits assumed)
T6 construct: Protein found in the co-IP by mass spectrometry; also called NP_001308051.1
T6 sequence (P02788 20-710 limits assumed): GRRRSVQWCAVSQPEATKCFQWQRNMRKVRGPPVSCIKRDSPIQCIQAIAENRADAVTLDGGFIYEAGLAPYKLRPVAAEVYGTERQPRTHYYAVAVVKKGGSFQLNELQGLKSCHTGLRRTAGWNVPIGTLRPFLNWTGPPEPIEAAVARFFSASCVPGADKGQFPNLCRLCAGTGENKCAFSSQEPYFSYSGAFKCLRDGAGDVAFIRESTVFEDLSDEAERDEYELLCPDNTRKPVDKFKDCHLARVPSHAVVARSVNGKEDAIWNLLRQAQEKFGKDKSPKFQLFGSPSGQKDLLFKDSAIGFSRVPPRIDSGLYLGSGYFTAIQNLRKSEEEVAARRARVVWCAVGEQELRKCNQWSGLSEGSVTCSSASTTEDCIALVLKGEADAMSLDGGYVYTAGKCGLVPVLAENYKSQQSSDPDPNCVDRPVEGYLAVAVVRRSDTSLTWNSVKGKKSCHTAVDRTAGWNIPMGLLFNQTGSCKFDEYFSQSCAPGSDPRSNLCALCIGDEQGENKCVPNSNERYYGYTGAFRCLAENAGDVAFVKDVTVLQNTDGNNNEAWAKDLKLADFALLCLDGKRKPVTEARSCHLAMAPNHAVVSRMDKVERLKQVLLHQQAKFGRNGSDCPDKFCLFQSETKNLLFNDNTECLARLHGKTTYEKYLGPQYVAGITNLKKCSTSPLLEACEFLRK
Description: as §1, §2

T1 sequence (P16989 2-372 limits assumed): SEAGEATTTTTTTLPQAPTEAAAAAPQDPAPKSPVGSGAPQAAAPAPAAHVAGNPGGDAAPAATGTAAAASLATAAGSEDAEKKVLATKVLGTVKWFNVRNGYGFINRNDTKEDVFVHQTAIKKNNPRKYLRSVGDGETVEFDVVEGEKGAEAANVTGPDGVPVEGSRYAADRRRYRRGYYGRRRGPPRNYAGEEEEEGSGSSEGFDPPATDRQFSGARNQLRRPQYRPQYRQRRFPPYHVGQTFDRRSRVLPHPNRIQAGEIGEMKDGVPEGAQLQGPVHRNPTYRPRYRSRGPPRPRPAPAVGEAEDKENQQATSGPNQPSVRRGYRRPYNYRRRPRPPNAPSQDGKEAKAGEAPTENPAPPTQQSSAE

co-IP mass spectrometry count (YBX3): 0
co-IP mass spectrometry count (HNRNPA1): 7
co-IP mass spectrometry count (RPL36A): 3
co-IP mass spectrometry count (RPL21): 8
co-IP mass spectrometry count (TPI1): 3
co-IP mass spectrometry count (ATXN2L): 5
co-IP mass spectrometry count (RCC2): 0
co-IP mass spectrometry count (LTF): 8
B1: N-terminal FLAG tagged B3GNT2 (enzyme, human, UniProt Q9NY97 1-397, looked up)
chain: MSVGRRRIKLLGILMMANVFIYFIMEVSKSSSQEKNGKGEVIIPKEKFWKISTPPEAYWNREQEKLNRQYNPILSMLTNQTGEAGRLSNISHLNYCEPDLRVTSVVTGFNNLPDRFKDFLLYLRCRNYSLLIDQPDKCAKKPFLLLAIKSLTPHFARRQAIRESWGQESNAGNQTVVRVFLLGQTPPEDNHPDLSDMLKFESEKHQDILMWNYRDTFFNLSLKEVLFLRWVSTSCPDTEFVFKGDDDVFVNTHHILNYLNSLSKTKAKDLFIGDVIHNAGPHRDKKLKYYIPEVVYSGLYPPYAGGGGFLYSGHLALRLYHITDQVHLYPIDDVYTGMCLQKLGLVPEKHKGFRTFDIEEKNKNNICSYVDLMLVHSRKPQEMIDIWSQLQSAHLKC
notes: FLAG-tagged ORF overexpressed in cells; bait of the anti-FLAG co-IP; also called N-FLAG B3GNT2; N-term FLAG; not shown: FLAG tag at the N-terminus
